Source: the supplement of paper PMC7877785
± gives the uncertainty stated by the source.

Test: self-splicing fitness, log relative to wild type (ln ratio); higher = more splicing; Tetrahymena group I intron in knt gene, E. coli kanamycin selection, DiMSum; sequences stand for … in CUCUCU…GGAGGGAAAAGUUAUCAGGCAUGCACCUGGUAGCUAGUCUUUAAACCAAUAGAUUGCAUCGGUUUAAAAGGCAAGACCGUCAAAUUGCGGGAAAGGGGUCAACAGCCGUUCAGUACCAAGUCUCAGGGGAAACUUUGAGAUGGCCUUGCAAAGGGUAUGGUAAUAAGCUGACGGACAUGGUCCUAACCACGCAGCCAAGUCCUAAGUCAACAGAUCUUCUGUUGAUAUGGAUGCAGUUCACAGACUAAAUGUCGGUCGGGGAAGAUGUAUUCUUCUCAUAAGAUAUAGUCGGACCUCUCCUUAAUGGGAGCUAGCGGAUGAAGUGAUGCAACACUGGAGCCGCUGGGAACUAAUUUGUAUGCGAAAGUAUAUUGAUUAGUUUUGGAGUACUCGUGGUCG
In short: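 A randomised library covering all eight P1ex-region intron nucleotides was built with the intron in the knt kanamycin-resistance gene on pET-22b(+) and held in E. coli BL21(DE3). Cells were grown overnight at 37°C or 30°C on LB agar, with or without 25 μg/mL kanamycin, plus 100 μg/mL carbenicillin, 50 μM IPTG and 0.2% rhamnose, and pooled colonies were amplicon-sequenced on an Illumina HiSeq 2500. DiMSum fitness is the error-weighted combination of wild-type-normalised replicate fold changes, kanamycin versus none.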

Row | Sequence | self-splicing fitness (ln) (30 °C) | self-splicing fitness (ln) (37 °C)
1 | GACUAGCAAUAUUACGCACU | -0.55 ± 0.11 | 0.415 ± 0.16
2 | GACUAGCAAUAUUACGCAGU | -3.21 ± 0.31 | -2.17 ± 0.2
3 | GACUAGCAAUAUUACGCCCA | -0.026 ± 0.17 | 0.443 ± 0.24
4 | GACUAGCAAUAUUACGCGCC | -2.11 ± 0.32 | -0.0214 ± 0.39
5 | GACUAGCAAUAUUACGGAUU | -0.975 ± 0.066 | -0.588 ± 0.092
6 | GACUAGCAAUAUUACGGGAG | -0.663 ± 0.096 | 0.0641 ± 0.12
7 | GACUAGCAAUAUUACGGGUU | -3.92 ± 0.24 | -2.74 ± 0.27
8 | GACUAGCAAUAUUACGGUAC | -2.1 ± 0.2 | -1.2 ± 0.18
9 | GACUAGCAAUAUUACGGUCG | -2.05 ± 0.09 | -0.165 ± 0.1
10 | GACUAGCAAUAUUACGGUUU | -1.7 ± 0.092 | -1.53 ± 0.11
11 | GACUAGCAAUAUUACGUAAG | -0.946 ± 0.087 | -0.709 ± 0.11
12 | GACUAGCAAUAUUACGUACU | -1.13 ± 0.094 | -0.372 ± 0.14
13 | GACUAGCAAUAUUACGUUGC | -2.56 ± 0.12 | -2.5 ± 0.2
14 | GACUAGCAAUAUUACGUUUC | -2.3 ± 0.12 | -2.84 ± 0.18
15 | GAGAAGCAAUAUUACGAAUU | -2.27 ± 0.14 | -1.13 ± 0.15
16 | GAGAAGCAAUAUUACGACCC | -1.83 ± 0.38 | –
17 | GAGAAGCAAUAUUACGACGA | -0.554 ± 0.066 | -0.104 ± 0.09
18 | GAGAAGCAAUAUUACGAGAA | -2.75 ± 0.47 | -0.703 ± 0.35
19 | GAGAAGCAAUAUUACGAGGU | -3.47 ± 0.33 | -3.9 ± 0.46
20 | GAGAAGCAAUAUUACGAGUU | -1.95 ± 0.12 | -1.63 ± 0.13
21 | GAGAAGCAAUAUUACGAUCC | -1.9 ± 0.26 | -0.963 ± 0.43
22 | GAGAAGCAAUAUUACGAUUG | -2.76 ± 0.22 | -1.49 ± 0.23
23 | GAGAAGCAAUAUUACGCACG | -0.497 ± 0.14 | -0.392 ± 0.15
24 | GAGAAGCAAUAUUACGCCAA | -0.505 ± 0.27 | -2.17 ± 0.22

Row | Sequence | self-splicing fitness (ln) (30 °C) | self-splicing fitness (ln) (37 °C)
25 | GAGAAGCAAUAUUACGCCCA | -0.503 ± 0.2 | -0.351 ± 0.18
26 | GAGAAGCAAUAUUACGCGAU | -2.81 ± 0.27 | -2.48 ± 0.33
27 | GAGAAGCAAUAUUACGCGGA | -2.51 ± 0.22 | -1.39 ± 0.17
28 | GAGAAGCAAUAUUACGCUCA | -1.29 ± 0.16 | -1.13 ± 0.15
29 | GAGAAGCAAUAUUACGGAGC | -3.83 ± 0.4 | -1.84 ± 0.23
30 | GAGAAGCAAUAUUACGGAUC | -2.34 ± 0.34 | -1.97 ± 0.4
31 | GAGAAGCAAUAUUACGGAUU | -2.77 ± 0.11 | -1.63 ± 0.11
32 | GAGAAGCAAUAUUACGGCCA | -0.417 ± 0.16 | -0.286 ± 0.17
33 | GAGAAGCAAUAUUACGGGCG | -1.52 ± 0.14 | -0.609 ± 0.13
34 | GAGAAGCAAUAUUACGGGGG | – | -1.8 ± 0.47
35 | GAGAAGCAAUAUUACGGUAG | -3.75 ± 0.29 | -2.68 ± 0.24
36 | GAGAAGCAAUAUUACGGUGC | -2.81 ± 0.19 | 0.59 ± 0.21
37 | GAGAAGCAAUAUUACGGUUC | -2.91 ± 0.13 | -1.5 ± 0.13
38 | GAGAAGCAAUAUUACGGUUU | -1.07 ± 0.099 | -1.21 ± 0.14
39 | GAGAAGCAAUAUUACGUACU | 0.0719 ± 0.08 | 0.0321 ± 0.11
40 | GAGAAGCAAUAUUACGUCCG | -1.48 ± 0.091 | -0.864 ± 0.1
41 | GAGAAGCAAUAUUACGUCUG | -0.739 ± 0.13 | 0.277 ± 0.15
42 | GAGAAGCAAUAUUACGUGGG | -2.74 ± 0.14 | -2.29 ± 0.19
43 | GAGAAGCAAUAUUACGUUCU | -4 ± 0.36 | -2.01 ± 0.23
44 | GAGAAGCAAUAUUACGUUUG | -2.98 ± 0.11 | -1.85 ± 0.14
45 | GAGCAGCAAUAUUACGAACU | -1.17 ± 0.12 | -0.227 ± 0.17
46 | GAGCAGCAAUAUUACGACCU | -1.22 ± 0.17 | 0.00279 ± 0.23
47 | GAGCAGCAAUAUUACGAGCU | -2.58 ± 0.12 | -1.88 ± 0.18
48 | GAGCAGCAAUAUUACGAUAU | -2.17 ± 0.13 | -1.17 ± 0.15
